Holding throughout (assay): EC50 of free RNA motif oligo competing protein binding to immobilised probe
For series [1], the target named is T1, NONO (UniProt Q15233).
T1 sequence: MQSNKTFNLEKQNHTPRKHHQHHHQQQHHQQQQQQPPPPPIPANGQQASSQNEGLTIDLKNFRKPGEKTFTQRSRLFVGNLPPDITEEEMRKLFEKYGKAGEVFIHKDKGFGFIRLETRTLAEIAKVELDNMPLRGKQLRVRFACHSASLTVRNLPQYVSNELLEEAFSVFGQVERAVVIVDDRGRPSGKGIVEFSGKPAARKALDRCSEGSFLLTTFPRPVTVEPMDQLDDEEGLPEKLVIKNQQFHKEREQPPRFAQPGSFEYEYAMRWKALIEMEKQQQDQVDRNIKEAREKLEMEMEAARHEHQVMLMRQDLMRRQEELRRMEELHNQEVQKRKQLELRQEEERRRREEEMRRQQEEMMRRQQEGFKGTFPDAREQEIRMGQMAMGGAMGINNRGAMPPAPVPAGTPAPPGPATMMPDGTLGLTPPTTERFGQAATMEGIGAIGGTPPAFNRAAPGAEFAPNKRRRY
Summed up:
(§1)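 HEK293-FT lysate (2.5 mg protein/well) was pre-incubated 1 h at 4°C with free RNA oligos (0 nM to 30 μM), then 30 min at 4°C with the same 5′-amino-C6 oligos coupled to NHS-Sepharose beads. Bound proteins were quantified by label-free LC-MS/MS in three biological replicates and two independent experiments, and normalised to the water control. EC50 came from a four-parameter log-logistic fit; Kd is EC50 times a protein-dependent depletion factor.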

Series [2] addresses T2, SRSF11 (UniProt Q05519).
T2 sequence: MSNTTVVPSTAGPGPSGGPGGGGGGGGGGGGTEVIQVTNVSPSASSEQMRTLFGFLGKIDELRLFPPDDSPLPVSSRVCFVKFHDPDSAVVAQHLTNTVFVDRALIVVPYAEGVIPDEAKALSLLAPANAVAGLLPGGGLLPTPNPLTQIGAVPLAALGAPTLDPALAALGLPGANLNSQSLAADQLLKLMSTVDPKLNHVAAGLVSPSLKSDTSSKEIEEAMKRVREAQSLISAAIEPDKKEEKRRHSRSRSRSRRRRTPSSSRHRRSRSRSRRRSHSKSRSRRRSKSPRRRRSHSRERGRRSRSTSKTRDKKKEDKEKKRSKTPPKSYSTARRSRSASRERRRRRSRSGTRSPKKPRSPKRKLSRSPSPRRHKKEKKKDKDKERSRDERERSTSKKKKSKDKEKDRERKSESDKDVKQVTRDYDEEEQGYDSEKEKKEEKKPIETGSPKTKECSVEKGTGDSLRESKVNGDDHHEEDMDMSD
Summed up:
as §1

Series [3] addresses T3, MKRN2 (UniProt Q9H000).
T3 sequence: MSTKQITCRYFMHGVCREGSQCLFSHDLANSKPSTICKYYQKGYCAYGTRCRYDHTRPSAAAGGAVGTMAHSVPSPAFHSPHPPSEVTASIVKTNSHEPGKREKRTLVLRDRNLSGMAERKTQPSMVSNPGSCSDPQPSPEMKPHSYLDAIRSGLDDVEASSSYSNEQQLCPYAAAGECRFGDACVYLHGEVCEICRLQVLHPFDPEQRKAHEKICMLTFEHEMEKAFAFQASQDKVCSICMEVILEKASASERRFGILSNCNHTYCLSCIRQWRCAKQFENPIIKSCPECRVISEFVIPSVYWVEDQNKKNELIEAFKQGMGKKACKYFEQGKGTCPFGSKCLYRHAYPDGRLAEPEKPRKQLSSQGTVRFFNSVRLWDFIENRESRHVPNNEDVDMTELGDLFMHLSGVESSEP
The gist of the method:
as §1

Series [4] concerns the target TUBB4B (UniProt P68371). Summed up: as §1
For series [5], the target named is RPS3A (UniProt P61247). The gist of the method: as §1
For series [6], the target named is RPS19 (UniProt P39019). The gist of the method: as §1
Series [7] deals with T4, ERAL1 (UniProt O75616).
T4 sequence: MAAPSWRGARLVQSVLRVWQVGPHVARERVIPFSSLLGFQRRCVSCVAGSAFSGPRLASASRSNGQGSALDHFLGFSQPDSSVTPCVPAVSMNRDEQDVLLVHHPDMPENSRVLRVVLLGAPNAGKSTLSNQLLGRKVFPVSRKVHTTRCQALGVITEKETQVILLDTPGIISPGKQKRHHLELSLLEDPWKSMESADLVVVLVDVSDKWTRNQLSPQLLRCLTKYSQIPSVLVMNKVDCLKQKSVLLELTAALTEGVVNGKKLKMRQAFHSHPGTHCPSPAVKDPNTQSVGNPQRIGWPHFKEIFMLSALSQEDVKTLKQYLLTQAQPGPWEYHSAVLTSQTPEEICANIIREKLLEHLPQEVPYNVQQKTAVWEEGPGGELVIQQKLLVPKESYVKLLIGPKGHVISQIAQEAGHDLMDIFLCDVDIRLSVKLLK
Summed up: as §1

In series [8] the target is MRPS34 (UniProt P82930). Summed up:
as §1

A word on the EC50: it is the concentration that produces a half-maximal response. The low end stands for higher potency in that assay, the high end for lower potency in that assay.

Sequence of TUBB4B (P68371 whole entry): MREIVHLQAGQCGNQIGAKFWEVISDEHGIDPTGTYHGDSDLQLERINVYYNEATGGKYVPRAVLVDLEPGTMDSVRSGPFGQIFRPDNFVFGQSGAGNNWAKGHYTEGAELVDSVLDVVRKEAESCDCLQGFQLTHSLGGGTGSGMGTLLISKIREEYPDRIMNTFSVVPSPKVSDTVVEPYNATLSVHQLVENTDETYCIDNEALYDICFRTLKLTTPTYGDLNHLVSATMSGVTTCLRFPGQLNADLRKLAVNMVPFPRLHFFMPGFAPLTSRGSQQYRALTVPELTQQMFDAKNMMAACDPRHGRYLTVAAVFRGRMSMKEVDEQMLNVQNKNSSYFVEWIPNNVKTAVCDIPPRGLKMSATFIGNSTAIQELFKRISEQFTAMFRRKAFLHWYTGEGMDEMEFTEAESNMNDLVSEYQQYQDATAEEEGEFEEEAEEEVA

On to AAUAAA, for which the EC50 in series [1] was determined as 0.302 nM; in series [2], 1110 nM; in series [3], 3550 nM; in series [4] it was 1410 nM.

For the sequence CUGUCCU, the EC50 came to 106 nM in series [5] and 176 nM in series [6].

Consider UAUUUAU, for which the EC50 in series [7] came out at 27.8 nM; in series [8], 59.7 nM.

Values taken from the supplement of paper PMC6379048.
